Assay results as given in US20210130452A1 (Merck KGaA, published 2021).
Several values for one entry are separate records, joined by “and”; a condition that tells them apart may be missing. Equal entries are not always repeated. Where two headings read alike, the source gives them in different places.

Columns and labels:
human IL-17A [1] = target: T1, human IL-17A (human, UniProt Q16552 24-155); assay: KinExA, 30 pM Nanobody
T1 construct: secreted form (GenBank U32659) expressed in Hek293 with C-terminal 6-His; also called hIL-17A; IL-17A-6HIS
T1 sequence (Q16552 other isoform, or with tags, fused parts or gaps): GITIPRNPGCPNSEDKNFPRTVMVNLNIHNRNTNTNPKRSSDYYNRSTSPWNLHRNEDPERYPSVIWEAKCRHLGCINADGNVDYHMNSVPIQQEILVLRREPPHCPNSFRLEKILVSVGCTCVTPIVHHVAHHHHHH

human IL-17A [2] = target: T1, human IL-17A; assay: KinExA, 100 pM Nanobody
Method: (§1) The affinity of a limited set of formatted Nanobodies was determined using the KinExA.

human IL-17A [3] = target: T2, human IL-17A (human, UniProt Q16552 24-155); assay: AlphaScreen hIL-17A-IL-17RA; reference itself
T2 construct: secreted form made in Hek293 cells (GenBank U32659); also called hIL-17A; hIL17A
T2 sequence (Q16552 other isoform, or with tags, fused parts or gaps): as above

human IL-17F [4] = target: T3, human IL-17F (human, UniProt Q96PD4 31-163); assay: AlphaScreen hIL-17F-IL-17RC; reference itself
T3 construct: made in Hek293 cells (GenBank AF384857); also called hIL-17F; hIL17F
T3 sequence: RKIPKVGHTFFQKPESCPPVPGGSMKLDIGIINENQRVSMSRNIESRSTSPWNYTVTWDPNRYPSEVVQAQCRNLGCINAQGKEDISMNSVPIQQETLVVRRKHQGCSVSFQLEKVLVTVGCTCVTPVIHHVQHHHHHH

human IL-17A [5] = target: T2, human IL-17A; assay: AlphaScreen hIL-17A-IL-17RA; reference itself; remark: listed apart in the source
[6] = target: T4, human IL-17A/F heterodimer (human, UniProt Q16552 24-155; Q96PD4 31-163, limits assumed); assay: SPR (Biacore) off-rate
T4 construct: bought, made in E. coli (R&D Systems 5194-IL/CF); also called hIL-17A/F; hIL17A/F
Target sequence in this assay (Q16552 24-155 limits assumed, one chain of several): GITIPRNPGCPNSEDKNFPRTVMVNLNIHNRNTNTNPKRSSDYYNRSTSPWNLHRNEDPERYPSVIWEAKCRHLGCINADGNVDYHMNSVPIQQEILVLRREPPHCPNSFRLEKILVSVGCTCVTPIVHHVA

Cynomolgus monkey IL-17F [7] = target: T5, Cynomolgus monkey IL-17F (Cynomolgus monkey, UniProt G7P4V0 31-163); assay: SPR (Biacore) off-rate
T5 construct: also called cyno IL-17F; cIL-17F
T5 sequence: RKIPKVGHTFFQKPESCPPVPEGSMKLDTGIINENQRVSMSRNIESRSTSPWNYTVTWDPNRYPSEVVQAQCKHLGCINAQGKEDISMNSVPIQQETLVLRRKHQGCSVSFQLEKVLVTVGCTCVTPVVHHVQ

Cynomolgus monkey IL-17A [8] = target: T6, Cynomolgus monkey IL-17A (Cynomolgus monkey, UniProt A0A2K5TTB0 24-155); assay: SPR (Biacore) off-rate
T6 construct: also called cyno IL-17A; cIL-17A
T6 sequence (A0A2K5TTB0 entry or part of it): as the sequence (Q16552 24-155 limits assumed, one chain of several) above, with T3A, P8S, N34S, I77V, N78K, P104R counted along it

human IL-17A [9] = target: T2, human IL-17A; assay: SPR (Biacore) off-rate
human IL-17F [10] = target: T3, human IL-17F; assay: SPR (Biacore) off-rate
[11] = target: T4, human IL-17A/F heterodimer; assay: SPR (Biacore) off-rate; remark: listed apart in the source
Target sequence in this assay (Q16552 24-155 limits assumed, chain 1 of 2, one chain of several): as the sequence (Q16552 24-155 limits assumed, one chain of several) above

human IL-17A [12] = target: T2, human IL-17A; assay: SPR (Biacore) off-rate; remark: listed apart in the source
human IL-17F [13] = target: T3, human IL-17F; assay: SPR (Biacore) off-rate; remark: listed apart in the source
[14] = target: T4, human IL-17A/F heterodimer; assay: cell-based or functional assay
Target sequence in this assay (Q16552 24-155 limits assumed, one chain of several): as above

Cynomolgus monkey IL-17F [15] = target: T5, Cynomolgus monkey IL-17F; assay: cell-based or functional assay
human IL-17A [16] = target: T2, human IL-17A; assay: cell-based or functional assay
human IL-17F [17] = target: T3, human IL-17F; assay: cell-based or functional assay
human IL-17F [18] = target: T3, human IL-17F; assay: AlphaScreen hIL-17F-IL-17RC; reference itself; remark: listed apart in the source
human IL-17F [19] = target: T3, human IL-17F; assay: AlphaScreen hIL-17F-IL-17RC; vs IL17MS13E02
human IL-17A [20] = target: T2, human IL-17A; assay: AlphaScreen hIL-17A-IL-17RA; vs IL17MS13E02
human IL-17A [21] = target: T1, human IL-17A; assay: competition ELISA IL17A-RA
Method: To this end, IL-17RA, respectively IL-17RC was coated at a concentration of 1 μg/ml in PBS.

human IL-17F [22] = target: T7, human IL-17F (human, UniProt Q96PD4 31-163); assay: KinExA, 10 pM Nanobody
T7 construct: GenBank AF384857, expressed in Hek293 as 6-His C-terminal tagged protein; also called hIL-17F; IL-17F-6HIS
T7 sequence: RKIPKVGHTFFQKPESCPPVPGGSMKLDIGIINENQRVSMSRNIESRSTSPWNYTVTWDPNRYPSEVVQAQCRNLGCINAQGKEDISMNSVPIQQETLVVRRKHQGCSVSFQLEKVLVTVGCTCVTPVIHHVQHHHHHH

human IL-17A [23] = target: T1, human IL-17A; assay: KinExA, 50 pM Nanobody
Method: as §1

human IL-17F [24] = target: T7, human IL-17F; assay: KinExA, 50 pM Nanobody
Method: as §1

human IL-17A [25] = target: T1, human IL-17A; assay: cell-based or functional assay; remark: listed apart in the source
human IL-17F [26] = target: T7, human IL-17F; assay: cell-based or functional assay; remark: listed apart in the source
human IL-17F [27] = target: T3, human IL-17F; assay: AlphaScreen hIL-17F-IL-17RC; reference itself; remark: listed apart in the source
[28] = target: T4, human IL-17A/F heterodimer; assay: SPR (Biacore) off-rate; remark: listed apart in the source
Target sequence in this assay (Q16552 24-155 limits assumed, one chain of several): as the sequence (Q16552 24-155 limits assumed, one chain of several) above

human IL-17A [29] = target: T2, human IL-17A; assay: SPR (Biacore) off-rate; remark: listed apart in the source
human IL-17F [30] = target: T3, human IL-17F; assay: SPR (Biacore) off-rate; remark: listed apart in the source
[31] = target: T4, human IL-17A/F heterodimer; assay: SPR (Biacore) off-rate; remark: listed apart in the source
Target sequence in this assay (Q16552 24-155 limits assumed, one chain of several): as the sequence (Q16552 24-155 limits assumed, one chain of several) above

Cynomolgus monkey IL-17F [32] = target: T5, Cynomolgus monkey IL-17F; assay: SPR (Biacore) off-rate; remark: listed apart in the source
Cynomolgus monkey IL-17A [33] = target: T6, Cynomolgus monkey IL-17A; assay: SPR (Biacore) off-rate; remark: listed apart in the source
human IL-17A [34] = target: T2, human IL-17A; assay: SPR (Biacore) off-rate; remark: listed apart in the source
human IL-17F [35] = target: T3, human IL-17F; assay: SPR (Biacore) off-rate; remark: listed apart in the source
human IL-17A [36] = target: T2, human IL-17A; assay: AlphaScreen hIL-17A-IL-17RA; reference itself; remark: listed apart in the source
human IL-17A [37] = target: T2, human IL-17A; assay: AlphaScreen hIL-17A-IL-17RA; reference itself; remark: listed apart in the source
[38] = target: T4, human IL-17A/F heterodimer; assay: cell-based or functional assay; remark: listed apart in the source
Target sequence in this assay (Q16552 24-155 limits assumed, one chain of several): as the sequence (Q16552 24-155 limits assumed, one chain of several) above

Cynomolgus monkey IL-17F [39] = target: T5, Cynomolgus monkey IL-17F; assay: cell-based or functional assay; remark: listed apart in the source
human IL-17A [40] = target: T2, human IL-17A; assay: cell-based or functional assay; remark: listed apart in the source
human IL-17F [41] = target: T3, human IL-17F; assay: cell-based or functional assay; remark: listed apart in the source
human IL-17F [42] = target: T3, human IL-17F; assay: AlphaScreen hIL-17F-IL-17RC; reference itself; remark: listed apart in the source
human IL-17F [43] = target: T7, human IL-17F; assay: KinExA, 600 pM Nanobody
human IL-17A [44] = target: T1, human IL-17A; assay: cell-based or functional assay; remark: listed apart in the source
human IL-17F [45] = target: T7, human IL-17F; assay: cell-based or functional assay; remark: listed apart in the source
Cynomolgus monkey IL-17A [46] = target: Cynomolgus monkey IL-17A (Cynomolgus monkey, UniProt A0A2K5TTB0 24-155); assay: cell-based or functional assay
Target sequence in this assay (A0A2K5TTB0 entry or part of it): as the sequence (Q16552 24-155 limits assumed, one chain of several) above, with T3A, P8S, N34S, I77V, N78K, P104R counted along it

B1: 13E02-SH-Fc (Fc fusion, not shown: a dimerising Fc or GST)
chain: EVQLVESGGGLVQAGGSLRLSCAASGRTYDAMGWLRQAPGKEREFVAAISGSGDDTYYADSVKGRFTISKDNAGITMYLQMNSLKPEDTAVYYCATRRGLYYVWDSNDYENWGQGTQVTVSSEPKSSDKTHTCPPCP
notes: bivalent Fc fusion from Hek-293-6E cells
Kd (human IL-17A [1]): 0.0036 nM | Kd (human IL-17A [2]): 0.009 nM

B2: IL17MS13E02 (VHH)
VHH: EVQLVESGGGLVQAGGSLRLSCAASGRTYDAMGWLRQAPGKEREFVAAISGSGDDTYYADSVKGRFTISKDNAGITMYLQMNSLKPEDTAVYYCATRRGLYYVWDSNDYENWGQGTQVTVSS
notes: Class 4 Nanobody, wild type; also called WT
IC50 fold difference vs WT (human IL-17A [3]): 1 fold | IC50 fold difference vs WT (human IL-17F [4]): 1 fold | IC50 fold difference vs WT (human IL-17A [5]): 1 fold | koff [6]: 3.97e-05 s⁻¹ | koff (Cynomolgus monkey IL-17F [7]): 0.046 s⁻¹ | koff (Cynomolgus monkey IL-17A [8]): 0.000103 s⁻¹ | koff (human IL-17A [9]): 0.000114 s⁻¹ | koff (human IL-17F [10]): 0.00223 s⁻¹ | koff [11]: 3.97e-05 s⁻¹ | koff (human IL-17A [12]): 0.000114 s⁻¹ | koff (human IL-17F [13]): 0.00223 s⁻¹ | IC50 cell based assay hIL-17A/F [14]: 1.99 nM | IC50 cell based assay cyno IL-17F (Cynomolgus monkey IL-17F [15]): 35 nM | IC50 cell based assay hIL-17A (human IL-17A [16]): 1.73 nM | IC50 cell based assay hIL-17F (human IL-17F [17]): 44 nM | IC50 fold difference vs WT (human IL-17F [18]): 1 fold

B3: IL17MS3072 (VHH)
VHH: DVQLVESGGGLVQPGGSLRLSCAASGRTYDALGWLRQAPGKEREFVAAISGSGDDTYYADSVKGRFTISRDNSKNTLYLQMNSLRPEDTAVYYCATRRGLYYVWDANDYENWGQGTLVTVSS
notes: variant of IL17MS13E02; Kabat numbering
IC50 fold difference vs WT (human IL-17F [19]): 0.3 fold | IC50 fold difference vs WT (human IL-17A [20]): 0.59 fold | IC50 cell based assay hIL-17A/F [14]: 3.5 nM | IC50 cell based assay cyno IL-17F (Cynomolgus monkey IL-17F [15]): 25.2 nM | IC50 cell based assay hIL-17A (human IL-17A [16]): 0.77 nM | IC50 cell based assay hIL-17F (human IL-17F [17]): 27 nM

B4: 13B03-LH-Fc (Fc fusion, not shown: a dimerising Fc or GST)
chain: EVQLVESGGGSVQAGDSLRLSCAASGRANSINWFGWFRQTPGKEREFVAGIRWSDAYTEYANSVKGRFTISRDNAKNTVDLQMDSLKPEDTAVYYCVLDLSTVRYWGQGTQVTVSSEPKTPKPQPQPQPQPNPTTESKCPKCP
notes: bivalent Fc fusion from Hek-293-6E cells; also called MSB0010530
IC50 (human IL-17A [21]): 0.031 nM | Kd (human IL-17F [22]): 0.0223 nM | Kd (human IL-17A [23]): 0.002 nM | Kd (human IL-17F [24]): 0.02 nM | Emax, hIL-17A induced IL-6, HT-1080, 100 µM HSA (human IL-17A [25]): 97.5% | IC50, hIL-17A induced IL-6, HT-1080, 100 µM HSA (human IL-17A [25]): 0.95 nM | IC50, hIL-17F induced IL-6, HT-1080, 100 µM HSA (human IL-17F [26]): 15.6 nM

B5: IL17MS13B03 (VHH)
VHH: EVQLVESGGGSVQAGDSLRLSCAASGRANSINWFGWFRQTPGKEREFVAGIRWSDAYTEYANSVKGRFTISRDNAKNTVDLQMDSLKPEDTAVYYCVLDLSTVRYWGQGTQVTVSS
notes: as for B2
IC50 fold difference compared to WT (human IL-17F [27]): 1 fold | koff [28]: 6.21e-05 to 0.000125 s⁻¹ | koff (human IL-17A [29]): 0.000131 s⁻¹ and 0.000208 s⁻¹ | koff (human IL-17F [30]): 0.00792 s⁻¹ | koff [31]: 6.21e-05 to 0.000125 s⁻¹ | koff (Cynomolgus monkey IL-17F [32]): 0.00469 s⁻¹ | koff (Cynomolgus monkey IL-17A [33]): 0.000114 s⁻¹ | koff (human IL-17A [34]): 0.000131 s⁻¹ and 0.000208 s⁻¹ | koff (human IL-17F [35]): 0.00792 s⁻¹ | IC50 fold difference compared to WT (human IL-17A [36]): 1 fold | IC50 fold difference compared to WT (human IL-17A [37]): 1 fold | IC50 cell based assay hIL17A/F [38]: 4.32 nM | IC50 cell based assay cyno IL17F (Cynomolgus monkey IL-17F [39]): 29 nM | IC50 cell based assay hIL17A (human IL-17A [40]): 1.34 nM | IC50 cell based assay hIL17F (human IL-17F [41]): 35 nM | IC50 fold difference compared to WT (human IL-17F [42]): 1 fold

B6: 13E02-LH-Fc (Fc fusion, not shown: a dimerising Fc or GST)
chain: EVQLVESGGGLVQAGGSLRLSCAASGRTYDAMGWLRQAPGKEREFVAAISGSGDDTYYADSVKGRFTISKDNAGITMYLQMNSLKPEDTAVYYCATRRGLYYVWDSNDYENWGQGTQVTVSSEPKTPKPQPQPQPQPNPTTESKCPKCP
notes: bivalent Fc fusion from Hek-293-6E cells; also called MSB0010606
Kd (human IL-17F [43]): 2.04 nM | IC50, hIL-17A induced IL-6, HT-1080, without HSA (human IL-17A [44]): 0.19 nM | IC50, hIL-17F induced IL-6, HT-1080, without HSA (human IL-17F [45]): 2.7 nM | IC50, Cyno IL17A, HT-1080 bioassay (Cynomolgus monkey IL-17A [46]): 0.19 nM | Emax, hIL-17A induced IL-6, HT-1080, 100 µM HSA (human IL-17A [25]): 98.5% | IC50, hIL-17A induced IL-6, HT-1080, 100 µM HSA (human IL-17A [25]): 0.85 nM | IC50, hIL-17F induced IL-6, HT-1080, 100 µM HSA (human IL-17F [26]): 15.3 nM
